In paper PMC7226614:

Target: Myc-GRAF3 (human) (UniProt A6NI28)
Chain of UniProt A6NI28 (A6NI28 whole entry): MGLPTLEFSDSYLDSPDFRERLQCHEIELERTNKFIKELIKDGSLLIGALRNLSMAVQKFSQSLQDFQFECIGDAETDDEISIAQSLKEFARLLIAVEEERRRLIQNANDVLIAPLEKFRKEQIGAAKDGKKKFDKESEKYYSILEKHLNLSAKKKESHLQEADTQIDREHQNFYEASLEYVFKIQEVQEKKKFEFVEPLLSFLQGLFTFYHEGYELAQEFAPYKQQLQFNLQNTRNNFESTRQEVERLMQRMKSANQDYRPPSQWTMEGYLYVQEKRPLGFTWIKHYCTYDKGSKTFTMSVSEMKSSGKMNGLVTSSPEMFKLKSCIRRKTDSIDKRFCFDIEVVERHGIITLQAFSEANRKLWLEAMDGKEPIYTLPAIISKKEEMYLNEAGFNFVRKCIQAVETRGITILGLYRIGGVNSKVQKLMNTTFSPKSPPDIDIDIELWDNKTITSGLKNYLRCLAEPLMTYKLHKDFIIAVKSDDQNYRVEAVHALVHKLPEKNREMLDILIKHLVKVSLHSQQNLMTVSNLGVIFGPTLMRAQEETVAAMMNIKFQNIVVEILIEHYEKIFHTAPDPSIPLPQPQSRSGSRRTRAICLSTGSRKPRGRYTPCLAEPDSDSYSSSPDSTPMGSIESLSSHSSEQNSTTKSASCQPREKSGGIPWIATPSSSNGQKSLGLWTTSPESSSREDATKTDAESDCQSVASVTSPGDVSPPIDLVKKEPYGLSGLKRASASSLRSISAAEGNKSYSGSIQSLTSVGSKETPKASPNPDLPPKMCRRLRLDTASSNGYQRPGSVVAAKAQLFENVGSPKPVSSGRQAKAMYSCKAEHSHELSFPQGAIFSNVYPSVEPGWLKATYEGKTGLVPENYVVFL

Flag-GRAF3 Bar-PH (domain or fragment)
RhoA-dependent actin stress fibers (phalloidin staining) in RaAoSMC; cells with reduced stress fibers: 58/59 with Myc-GRAF3 alone, 5/72 with Myc-GRAF3 and Flag-BAR-PH: 5 of 72 cells
